The record followed here is article PMC8977243 (Journal of molecular biology, 2022).

B1: His6-ERK2 (enzyme, rat, UniProt P63086 1-358, looked up)
chain: MAAAAAAGPEMVRGQVFDVGPRYTNLSYIGEGAYGMVCSAYDNLNKVRVAIKKISPFEHQTYCQRTLREIKILLRFRHENIIGINDIIRAPTIEQMKDVYIVQDLMETDLYKLLKTQHLSNDHICYFLYQILRGLKYIHSANVLHRDLKPSNLLLNTTCDLKICDFGLARVADPDHDHTGFLTEYVATRWYRAPEIMLNSKGYTKSIDIWSVGCILAEMLSNRPIFPGKHYLDQLNHILGILGSPSQEDLNCIINLKARNYLLSLPHKNKVPWNRLFPNADSKALDLLDKMLTFNPHKRIEVEQALAHPYLEQYYDPSDEPIAEAPFKFDMELDDLPKEKLKELIFEETARFQPGYRS

One experiment has as its target MBP-arrestin-2 (bovine, UniProt P17870 1-418). The experiment can be described thus: pull-down.
The experiment “His6-ERK2” addresses B1. The experiment is described as follows: peptide or protein array.

With B1, in the experiment with MBP-arrestin-2, the binding result was “binds”.

Take CKVYTLTPFLANNRE [arrestin-2-derived peptide CKVYTLTPFLANNRE]: the binding result with His6-ERK2 was “binds”.
